# Data as given in the NTF2 design screens of Basanta et al. (2020).
# Experiment: protease stability score; higher = more stable; yeast display proteolysis, trypsin and chymotrypsin;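 note: relative to predicted unfolded state with 0 unfolded-like and 1 meaning tenfold more protease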
row,Sequence,protease stability score
1,DDHHEVARKIFFHHYNITQTGDEESIERLLDPNVRIIIDGKYIHGWEEILRLIRHIRIHRFNVHRVELQGEKLILDGFTDGSFDGKRITTTIDIYILKIDGRWFIQQIELR,1.46
2,DELTEILKHAVERLLRHIVTGDEDSVSELADPNVKVDFNGQEYHGMHFFSHLASRFKGLRLELTELHSVGNYMDTRMHVEVNGKNIELILHSKKVNGKWSLERSEFH,1.26
3,DEEKEIHEELVRIWNHAVNTGNEELMERLMDPNVRLLYNGVDLIGMEHAREFNKRFDHLKIRRNEIKSFRVQGNKIDSDTHVDVELNINGKTLRVQQDQHWVVLKVDGRWYIHKIEIL,0.799
4,HEDEEWAEKMVREFLEATRTGDFESTLQLADPHVRFIINGKDIHGMEDWQEHLEHIRIQYHDIRIEHREVIGDKIYVKTRIDVTIHINGRKHRTVLDVEFIIHKVNGRWIIRELEIR,1.61
5,DEDRKHWETLLKIAFHLFRTGDEEKWERMFDPHARLHINGKDIHGREDIVHFLQEHLDHLWIEDVKVERMSVYNGVLHVDIRIHYRQGDKVYDVESSIDNIVIDGKSHRIRFDFH,1.26
6,SREEEIAHDVFREWIESFRTGDEDHRTEMMDPNARVFVNGVEFVGRDEIVRFFRHLRFDNSRHEIKSVRVVDGVAHIDSHLELHGTVNGQRDRVSYKLNVHTSKIDGKWVITEVKVK,2.03
7,SEHEKMMREIAKEYIDWFLTGDEELERNLADPDTRLNVDGREHHGMEEVIDLWRRIGLSNVDLRIHHWRAYGEFVYFDGEYTVGDKKRKVHFEYFVVNGRLKEVRVEIR,1.51
8,DEHEDDARRMWELLEHDLQTGDEESIHRLVDPNAKVVYGDKEFVGREVLLRFASEWRVHLMHLDDIKIRTYGDKIDIDTTTITNGEFNGRKHVTRTHLRVHFEKVNGKWYVREVIIEIH,1.31
9,SERDELVEKLMESALDFWRTGNEDLMERLLDPHVRLDINGREHHGREVVIKAFREIWMLLGIDHIDIHHVDIQGEYVHLDVRVKVNGKDTRSRIELIVVDGKITELIIRLR,2.51
10,DEEEHDARELARIVIEQFLTGNEDMLREFMDPNTRLHVNGVHRHGRESMVIMLRQLRTKRVHIKSIRIIGEKVDVDGILNGEVNGVEDNHQVHFHLIKVDGQWYIHHVIIR,1.39
11,DEEEEVLKTYLKLLIDALRTGDEHTMTRLIDPHARTHQGDKEIHGRKSMEELNKRYPNVRVDIRHISEVGDKITIDAVLHVGDKRYEIVIIAWKVNGRWEHTEFEFR,0.808
12,DEDKHLARHLVDLIWESLKTGNEKLSKSLADPNVRIIVGDKEVVGRERVEKWLEKVMHEIRVKDLDERHVDVQGDKVNVYVDIHGNFDGKDDTTHFYFDIKKVNGVWLIERYEVH,0.958
13,DEDKESTDKMLELMLHLIKTGDFEIFEHLFDPNVRVNVGDKERVGWKEALKFRRQWRLHHMEVRDVHKVGDKMHVDSRIDGSVNGVREEDRTEIILVKYDGRWFITSIEFH,0.99
14,SELEEEALHLMELYLKSVMTGDEESIRRLADPNVRFEVDINGKKLELHGWKEETKFWREIWVRELRVRDKDAIGNKVHSVVEINVDVNGKEIRRESEEHYIIVDGRLHIISFRVN,1.27
15,SEEEEDARQAFEEYTESLKTGDEDTLDRLLDPDTLLIINGREIHGMEEAIRIWHVWLRHMRFRSQEMRRIRVIDGKIDIESRSIIDINGREVDLRVHYILHKVNGRWLIESVRFE,2.38
16,DHEEEEEHFLLEHMIEAIVTGDEDRLKELVDPHVRMDIDGVIIHGMDDIARWLKELRSIIRHFIPRDRKWQGNKIHIEGEVHGELRFDGRNQTDTFRIEIVSHKINGRWVIRSESFR,1.18
17,DEDEEYAREMYRLSVEALSTGDEDTLRHLFDPDVKVSWNGKENIGMEQSLKHWHHLRIEFRRIKIEQVHIQGNKVRLNLRVDGYIRVDGKEDRVHMKSHSVYVKINGKWTMHSIEFE,1.79
18,DEDERDARKITDDYLHHLTTGDWNLMDTLADPHMKMDVNGQEIHGRESMVDLMLEWRFEHTDVHDKHVRSYDGKLEIHLDVHSRVHYNGRTDDTRREITLHIHKIDGRWRLEEVRIHYL,0.695

row,Sequence,protease stability score
1,SELEEKTEKWARLFWLLYKTGDWETLEKLLDPHVRSEINGKEEHGRENMIRMLVDLLRLLGIDHIELHHIEFVNGKVIIHLSLHAENHSSELIIEVNIINGKIESIRIEVR,1.09
2,SESEEDAHKASREITHMLYTGNEELWSTLADPNTRIVINGVEVHGREQVVRVIRELLRRFGVDKVHSELRTVDVQGEKVEIHSHYVQGDKSYDIILVMNKIDGRWHLQRQSIR,1.18
3,TEEEEEMRKMSELYIRAILTGDEDEYTKLADPDDRVNFNGRKLVGRKEVKEWLRKLRDKFKNITLHHFEIKELRVYNGRIRMIAESEVNIGDKVWRFHLHFIFEKFDGVWVLTEESTE,1.64
4,DEMEESAERMIEIYLRWLETGDEDSLVENIDPNVRVEIGDKRYHGREEVMHFLSSIQQRIKGARFHLKHFEIQGEYVDIHMEQRVGDKTMDRRVIFQKIDGRWLLKRSQVR,1.5
5,DEEHKLAEHYLRIWIHALITGDFHKILHLMDPNVRNEVGDKEVHGREEWEKFLKRVKNVVIEHVELDHLLVVDGRVHIRVTLHMSYGDKTEDHDIHVLMHKVDGRWYIKSIHVK,2.43
6,SELEEYLTYLSKLFVHALITGNEDKYTEEFDPRTRFEMLINGRRIEYHGRESVREFLRHFLEEWRIHHIDTTEIEFIGDKARIHGEQEVHFNGRNITTKVRIDILFYNGKMRDIRIEIE,2.15
7,DDEEKMFVHLAKLFTDIMTTGDEKFLDELVDPNVRFDVNGRLRVGREELKKAIQDWWREIRVDEILIHEIDVIDGRLRMDGRMRGDIDGQETYLELHIILHVIDGRMTHVEIRHQ,2.38
8,DRIEELSEEALHILKEVVRTGDERLIEENMDPNTRLEIGDKEFHGRHYAERFARDLGIKHMTFHHYETIDGRVHIHGTLHFNGRTHHTQIVLLKVNGQWRIERIHID,0.669
9,DENEEQLEDSVRMYIEAVQTGDEDSLRKLMDPHWRLEYGDKELHGRWALEVRHKFFKGMRIHHIEVHSVEIQGDKAKIIIHVLMEFDGRRLHIKTEVTVQKINGRWFNHSEKIN,1.14
10,DDHSSARKFADEFREMMKTGDSTKADELFDPNVRVEVGDKRYHGREQAVDWIRHLVDRYDHIEIRIDHITVRGDRISIVFTVHYEKNGETTYDRYVMVAVDRNGRAQIKMLRKG,2.09
11,DEHDELIERIARIYFEDELTGDWDSMMRLMDPRTRDDYNGKERHGWEEVETFFEELRKKFKGMKFHLEHLDVIGNKVHIIARWNVNGRHVQVHIDIIAFDGRVKSFSERVDIR,1.15
12,DEDLEESHYAIEYLIRLFETGDWDTVDRFFDPRTRLRVNGKNHHGREEVTEFVEDILKRYDHKQFTFTHVEFQGEKIILHGKLHLDINGVHFEHDFILIIKKIDGRWYVDEIHIS,1.39
13,TEDEKMLKESLERLLYTLHTGDEEFNKRLMDPEVRIVIGDKELHGMELARKFWEKLYKDLGADHVHMDVKHVRSIGDKVEVDSQLIFRVGDKEIRVDTKLFSHKFDGRWRLRYEYVD,1.39
14,SEDDERQRWIIEELVKTERTGDEHRRMELADPDYRLEIGDKEVHGMEEASRILHDELFNLGINHMHIKEWRVQGDKVHLEGLMVVGDKTHRVRIHYVIVNGRVKTLKWRID,1.33
15,SEEEEIMQRLLELMLQVFKTGDWKSLTDLLDPHVRLRIHQGDKTLHHHGREEFTERLRKLDEHLGVSRIDVRDHDMHEINGVLIIHLELRVNGRKVHVLILAEKIDGRWLLKSMHLVWH,1.42
16,DEREEEAERIMRLFQEFERTGDEDMLRHLVDPDARWVVGDKFQHGWHHFHRLLHHLRVRDLKPKSLHIDVQGDKVEVILHQEMDGEINGKRVIYHVVVIIIVNKFNGRWRNETVEVRFH,0.843
17,HEEDEDAERAMRILVEWTKTGDEDKLRRNMDPNVKLWIDGQELHGRDSFKHLLTRFKNVKFEISDIRVLNHEEVVEIQLDTHLRIDGREHRVEIILIVIKVNGKWVMKLVEVRVR,2.12
18,DDEEKEVKILTEIWWKSVRTGDEEFWDRLADPHTRLEILINGRTHEFHGMDEYNRILHHLRIEDRRTRSINNIDGKAQIDGFLVFRINGRSFETKVEVNISVVNGKVKHHKIIIE,1.3
